# Source: patent US20240309084A1 (Novartis, published 2024)
# Where two headings read alike, the source gives them in different places.
# B1: GalNAc-labeled LDLR conjugate (LDLR193 (193-720)(N515Q)(N657Q)_SrtA_CHis) (receptor)
# chain: not shown
# modifications: C-terminal sortase A ligation to GGG-triGalNAc at the LPETGG motif
# notes: also called GalNAc trimer-anti-LDLR protein conjugate
# B2: anti-ASGPR-PCSK9 bispecific antibody (ASGPR_4F3_scFv-PCSK9_Fab_DANAPA_hIgG1_KiH) (bispecific antibody)
# light: not shown
# chain: not shown
# heavy: QVQLVQSGAEVKKPGASVKVSCKASGYTFTSYYMHWVRQAPGQGLEWMGEISPFGGRTNYNEKFKSRVTMTRDTSTSTVYMELSSLRSEDTAVYYCARERPLYASDLWGQGTTVTVSSASTKGPSVFPLAPSSKSTSGGTAALGCLVKDYFPEPVTVSWNSGALTSGVHTFPAVLQSSGLYSLSSVVTVPSSSLGTQTYICNVNHKPSNTKVDKRVEPKSCDKTHTCPPCPAPELLGGPSVFLFPPKPKDTLMISRTPEVTCVVVAVSHEDPEVKFNWYVDGVEVHNAKTKPREEQYASTYRVVSVLTVLHQDWLNGKEYKCKVSNKALAAPIEKTISKAKGQPREPQVCTLPPSREEMTKNQVSLSCAVKGFYPSDIAVEWESNGQPENNYKTTPPVLDSDGSFFLVSKLTVDKSRWQQGNVFSCSVMHEALHNHYTQKSLSLSPGK
# notes: also called ASGPR-PCSK9 bispecific antibody 5; bispecific ASGPR-PCSK9 Ab 5
# B3: recombinant extracellular domain of human ASGPR1 with N-terminal biotinylated Avitag (receptor, UniProt P07306 62-291, looked up)
# chain: QNSQLQEELRGLRETFSNFTASTEAQVKGLSTQGGNVGRKMKSLESQLEKQQKDLSEDHSSLLLHVKQFVSDLRSLSCQMAALQGNGSERTCCPVNWVEHERSCYWFSRSGKAWADADNYCRLEDAHLVVVTSWEEQKFVQHHIGPVNTWMGLHDQNGPWKWVDGTDYETGFKNWRPEQPDDWYGHGLGGGEDCAHFTDDGRWNDDVCQRPYRWVCETELDKASQEPPLL
# modifications: biotin on the N-terminal Avitag
# notes: extracellular domain; also called hASBPR1; AGSPR1; not shown: N-terminal Avitag
# How the values were obtained:
# [1] = target: T1, purified recombinant full length human PCSK9 with C-terminal biotinylated Avitag (human, UniProt Q8NBP7 31-692, biotin on the C-terminal Avi-tag); experiment: SPR, 1:1 binding fit, stepwise injections over avi-PCSK9
# T1 construct: Signal peptide removal and autocatalytic prodomain cleavage are not described for the construct; also called hPCSK9; full length hPCSK9; not shown: Avi-tag
# [2] = target: B3; experiment: SPR, independently immobilized ASGPR
# Experimental: (§1) ASGPR SPR experiments were performed on either Biacore T200 or Biacore 8K. The assay was optimized for Biacore SA chip in running buffer consisting of 20 mM HEPES, 300 mM NaCl, 2 mM CaCl₂), 0.01% tween-20, 2% DMSO, pH 7.4. Recombinant extracellular domain of human ASGPR1 with N-terminal biotinylated Avitag was diluted to 20 μg/mL in running buffer, and immobilized onto SA chip after it was preconditioned with at least four 60-second injections at 30 μL/min of 1 M NaCl/40 mM NaOH solution. Protein immobilization level varied from 500 RU to 3500 RU dependent on analytes' molecular weight, for targeted Rmax of 30 RUs. Direct binding of analytes to ASGR1 was observed when a dose response titration of analytes in 2% DMSO was flown over the immobilized protein. Data analysis was done on either Biacore T200 Evaluation Software or Biacore Insight Evaluation Software.
# [3] = target: T1, purified recombinant full length human …; experiment: SPR, independently immobilized PCSK9
# [4] = target: B3; experiment: SPR, stepwise (single-cycle) injections of the bispecific Ab over immobilised hASGPR1
# Experimental: as §1
# His-ASGPR1(62-291) = target: T2, His-ASGPR1(62-291) (UniProt P07306 62-291); experiment: SPR, ternary format; panel title: hASGPR1 Binding Immobilized Bispecific Ab Bound to hPCSK9
# T2 construct: range 62-291; also called ASGPR1 (analyte of the sandwich SPR assay); not shown: His tag
# T2 sequence (looked up): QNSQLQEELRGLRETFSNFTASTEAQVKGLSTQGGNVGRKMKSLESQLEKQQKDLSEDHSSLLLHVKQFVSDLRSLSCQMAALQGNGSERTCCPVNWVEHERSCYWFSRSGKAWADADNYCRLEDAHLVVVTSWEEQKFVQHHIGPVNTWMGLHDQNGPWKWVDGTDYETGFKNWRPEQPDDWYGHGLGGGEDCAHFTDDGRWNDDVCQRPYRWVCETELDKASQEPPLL
# [5] = target: B1; experiment: SPR, 1:1 fit, stepwise injections over avi_deglycosylated_ASGPR1
# [6] = target: T3, triGalNAc-PCSK9 conjugate 4 (GalNAc-labeled PCSK9) (human, UniProt Q8NBP7 31-692, triGalNAc with a short PEG linker on a single solvent exposed lysine (position not given)); experiment: SPR, 1:1 binding fit, stepwise injections over ASGPR1; table under FIG. 16B
# T3 construct: It is not clear whether the PCSK9 was biotinylated before conjugation; also called triGalNAc-hPCSK9 4; GalNAc trimer-PCSK9 protein conjugate; not shown: Avi-tag
# Experimental: as §1
# [7] = target: T3, triGalNAc-PCSK9 conjugate 4 …; experiment: as above; remark: listed apart in the source
# Experimental: as §1
binder,measurement,setting,value
B1,Kd,[1],156 nM
B2,Kd,[2],3 nM
same,Kd,[3],0.2 nM
same,Kd,[4],2.73 nM
same,koff,[4],0.000527 s⁻¹
same,kon,[4],193000 M⁻¹ s⁻¹
same,Kd,His-ASGPR1(62-291),3.27 nM
same,koff,His-ASGPR1(62-291),5.93e-05 s⁻¹
same,kon,His-ASGPR1(62-291),18200 M⁻¹ s⁻¹
B3,Kd,[5],1.34 nM
same,Kd,[6],0.299 nM
same,Kd,[7],0.175 nM
